Two molecules from CN113372440A (SUN YAT SEN UNIV CANCER CENTER SUN YAT SEN UNIV AFFILIATED …, dated 2021) can be followed below.

Read-outs that look alike come from different tables or passages of the source.

Test [1] concerns the target gH/gL glycoprotein on EBV virions produced by AKATA cells (Epstein-Barr virus, UniProt P03231 19-706; P03212 23-137). Description: cell-based or functional assay.
Test [2] deals with T1, gLgH蛋白 (recombinant single-chain EBV M81 gL ectodomain - linker - gH ectodomain - 6xHis) (Epstein-Barr virus (M81 strain, …)).
In test [3] the target is T1, gLgH蛋白 (recombinant single-chain EBV …). Kind of test: ELISA, gLgH coated at 2 μg/mL, antibody titrated from 1 μg/mL, HRP goat anti-mouse IgG (Fig. 1). For orientation: An ELISA detects its analyte on a solid surface through an enzyme-linked reagent.
For test [4] the target is unchanged. Kind of test: ELISA by the method of Example 1 step 5, gLgH coated (Fig. 8).
For test [5] the target is unchanged. Description: SPR by the method of Example 4 (Biacore 8K, Protein A capture, gLgH as analyte) (Fig. 9). For orientation: SPR reads the build-up and loss of mass on a sensor chip optically.

B1: 单克隆抗体6H2 (anti-EBV gLgH mouse monoclonal antibody 6H2) (antibody, V domains shown)
VH: EVKLLESGGGLVQPGGSLKLSCAASGFDFSRYWMTWVRQAPGQGLEWIGEINPDSSTINYTPSLKDKFIISRDNAKNTLYLQVSKLRSEDTALYYCARSPYYYGSSYDVWGAGTAVTVSS
VL: DIVMSQSPSSLAVSAGEKVTMNCKSSQSLLNSRTRKNYLAWYQQKPGQSPKLLIYWASTRESGVPDRFTGSGSGTDFTLTISSVQAEDLAFYYCKQSYNLPTFGGGTKLEIK
notes: also called 单抗6H2; 中和抗体6H2
Turning to B1, in test [1], the “IC50 in the epithelial cell infection model (HNE1 cells, GFP-EBV, inhibition of GFP-positive cells)” value worked out at 0.108 µg/mL. In test [2], the dissociation constant (Kd) is 2.8 nM. The EC50 in test [3] came out at 0.0134 µg/mL.

B2: 嵌合单抗C6H2 (mouse 6H2 variable regions on human IgG1/kappa constant regions) (antibody, V domains shown)
VH: B1 VH
VL: DIVMSQSPSSLAVSAGEKVTMNCKSSQSLLNSRTRKNYLAWYQQKPGQSPKLLIYWASTRESGVPDRFTGSGSGTDFTLTISSVQAEDLAFYYCKQSYNLPTFGGGTKLEIKR
notes: also called 嵌合抗体C6H2
Consider B2, for which, in test [4], the EC50 amounted to 0.0266 µg/mL. Moreover, the Kd in test [5] came to 11.5 nM.

A word on the Kd: it is the constant that tells how readily two partners part at equilibrium. The term EC50 denotes the concentration giving half of the maximal effect.
